Measurements reported in patent US20210388087A1 (Chugai, published 2021).

The binders below were run against T1, Human CD137 ECD (human) (assay: Biacore SPR, vs parent H183/L072).
T1 construct: entry includes C-terminal His-tag and biotin acceptor peptide; also called human CD137 extracellular domain; 4-1BB
T1 sequence (chain, as listed by the source limits assumed): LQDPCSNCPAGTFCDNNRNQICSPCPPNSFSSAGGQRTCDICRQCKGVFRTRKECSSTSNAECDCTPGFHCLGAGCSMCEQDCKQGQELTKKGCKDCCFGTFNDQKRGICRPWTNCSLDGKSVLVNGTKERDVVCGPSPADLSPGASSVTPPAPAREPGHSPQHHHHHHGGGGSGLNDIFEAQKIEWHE

Row | Binder | fold change of affinity [fold]
1 | H183/L072 VL R29H (antibody, name in Kabat numbering, V domains shown, Dual-Ig) VH: QVQLVESGGGLVQPGRSLRLSCAASGFTFSNAWMHWVRQAPGKGLEWVAQIKDKGNAYAAYYAPSVKGRFTISRDDSKNSIYLQMNSLKTEDTAVYYCHYVHYASASTVLPAFGVDAWGQGTTVTVSS VL: DIVMTQSPLSLPVTPGEPASISCQASQELVHMNHNTYLHWYQQKPGQAPRLLIYKVSNRFPGVPDRFSGSGSGTDFTLKISRVEAEDVGVYYCAQGTSVPFTFGQGTKLEIK | 0.8
2 | H183/L072 VL R29N (antibody, name in Kabat numbering, V domains shown, Dual-Ig) VH: QVQLVESGGGLVQPGRSLRLSCAASGFTFSNAWMHWVRQAPGKGLEWVAQIKDKGNAYAAYYAPSVKGRFTISRDDSKNSIYLQMNSLKTEDTAVYYCHYVHYASASTVLPAFGVDAWGQGTTVTVSS VL: DIVMTQSPLSLPVTPGEPASISCQASQELVHMNNNTYLHWYQQKPGQAPRLLIYKVSNRFPGVPDRFSGSGSGTDFTLKISRVEAEDVGVYYCAQGTSVPFTFGQGTKLEIK | 0.9
3 | H183/L072 VL R54E (antibody, name in Kabat numbering, V domains shown, Dual-Ig) VH: QVQLVESGGGLVQPGRSLRLSCAASGFTFSNAWMHWVRQAPGKGLEWVAQIKDKGNAYAAYYAPSVKGRFTISRDDSKNSIYLQMNSLKTEDTAVYYCHYVHYASASTVLPAFGVDAWGQGTTVTVSS VL: DIVMTQSPLSLPVTPGEPASISCQASQELVHMNRNTYLHWYQQKPGQAPRLLIYKVSNEFPGVPDRFSGSGSGTDFTLKISRVEAEDVGVYYCAQGTSVPFTFGQGTKLEIK | 0.6
4 | H183/L072 VL R29L (antibody, name in Kabat numbering, V domains shown, Dual-Ig) VH: QVQLVESGGGLVQPGRSLRLSCAASGFTFSNAWMHWVRQAPGKGLEWVAQIKDKGNAYAAYYAPSVKGRFTISRDDSKNSIYLQMNSLKTEDTAVYYCHYVHYASASTVLPAFGVDAWGQGTTVTVSS VL: DIVMTQSPLSLPVTPGEPASISCQASQELVHMNLNTYLHWYQQKPGQAPRLLIYKVSNRFPGVPDRFSGSGSGTDFTLKISRVEAEDVGVYYCAQGTSVPFTFGQGTKLEIK | 0.9
5 | H183/L072 VL R29V (antibody, name in Kabat numbering, V domains shown, Dual-Ig) VH: QVQLVESGGGLVQPGRSLRLSCAASGFTFSNAWMHWVRQAPGKGLEWVAQIKDKGNAYAAYYAPSVKGRFTISRDDSKNSIYLQMNSLKTEDTAVYYCHYVHYASASTVLPAFGVDAWGQGTTVTVSS VL: DIVMTQSPLSLPVTPGEPASISCQASQELVHMNVNTYLHWYQQKPGQAPRLLIYKVSNRFPGVPDRFSGSGSGTDFTLKISRVEAEDVGVYYCAQGTSVPFTFGQGTKLEIK | 0.3
6 | H183/L072 VL R54A (antibody, name in Kabat numbering, V domains shown, Dual-Ig) VH: QVQLVESGGGLVQPGRSLRLSCAASGFTFSNAWMHWVRQAPGKGLEWVAQIKDKGNAYAAYYAPSVKGRFTISRDDSKNSIYLQMNSLKTEDTAVYYCHYVHYASASTVLPAFGVDAWGQGTTVTVSS VL: DIVMTQSPLSLPVTPGEPASISCQASQELVHMNRNTYLHWYQQKPGQAPRLLIYKVSNAFPGVPDRFSGSGSGTDFTLKISRVEAEDVGVYYCAQGTSVPFTFGQGTKLEIK | 0.9
7 | H183/L072 VL R29W (antibody, name in Kabat numbering, V domains shown, Dual-Ig) VH: QVQLVESGGGLVQPGRSLRLSCAASGFTFSNAWMHWVRQAPGKGLEWVAQIKDKGNAYAAYYAPSVKGRFTISRDDSKNSIYLQMNSLKTEDTAVYYCHYVHYASASTVLPAFGVDAWGQGTTVTVSS VL: DIVMTQSPLSLPVTPGEPASISCQASQELVHMNWNTYLHWYQQKPGQAPRLLIYKVSNRFPGVPDRFSGSGSGTDFTLKISRVEAEDVGVYYCAQGTSVPFTFGQGTKLEIK | 0.6
8 | H183/L072 VL R29Y (antibody, name in Kabat numbering, V domains shown, Dual-Ig) VH: QVQLVESGGGLVQPGRSLRLSCAASGFTFSNAWMHWVRQAPGKGLEWVAQIKDKGNAYAAYYAPSVKGRFTISRDDSKNSIYLQMNSLKTEDTAVYYCHYVHYASASTVLPAFGVDAWGQGTTVTVSS VL: DIVMTQSPLSLPVTPGEPASISCQASQELVHMNYNTYLHWYQQKPGQAPRLLIYKVSNRFPGVPDRFSGSGSGTDFTLKISRVEAEDVGVYYCAQGTSVPFTFGQGTKLEIK | 0.6
9 | H183/L072 VL R29P (antibody, name in Kabat numbering, V domains shown, Dual-Ig) VH: QVQLVESGGGLVQPGRSLRLSCAASGFTFSNAWMHWVRQAPGKGLEWVAQIKDKGNAYAAYYAPSVKGRFTISRDDSKNSIYLQMNSLKTEDTAVYYCHYVHYASASTVLPAFGVDAWGQGTTVTVSS VL: DIVMTQSPLSLPVTPGEPASISCQASQELVHMNPNTYLHWYQQKPGQAPRLLIYKVSNRFPGVPDRFSGSGSGTDFTLKISRVEAEDVGVYYCAQGTSVPFTFGQGTKLEIK | 0.2
10 | H183/L072 VL R29T (antibody, name in Kabat numbering, V domains shown, Dual-Ig) VH: QVQLVESGGGLVQPGRSLRLSCAASGFTFSNAWMHWVRQAPGKGLEWVAQIKDKGNAYAAYYAPSVKGRFTISRDDSKNSIYLQMNSLKTEDTAVYYCHYVHYASASTVLPAFGVDAWGQGTTVTVSS VL: DIVMTQSPLSLPVTPGEPASISCQASQELVHMNTNTYLHWYQQKPGQAPRLLIYKVSNRFPGVPDRFSGSGSGTDFTLKISRVEAEDVGVYYCAQGTSVPFTFGQGTKLEIK | 0.8
11 | H183/L072 VL R29S (antibody, name in Kabat numbering, V domains shown, Dual-Ig) VH: QVQLVESGGGLVQPGRSLRLSCAASGFTFSNAWMHWVRQAPGKGLEWVAQIKDKGNAYAAYYAPSVKGRFTISRDDSKNSIYLQMNSLKTEDTAVYYCHYVHYASASTVLPAFGVDAWGQGTTVTVSS VL: DIVMTQSPLSLPVTPGEPASISCQASQELVHMNSNTYLHWYQQKPGQAPRLLIYKVSNRFPGVPDRFSGSGSGTDFTLKISRVEAEDVGVYYCAQGTSVPFTFGQGTKLEIK | 0.9
12 | H183/L072 VL R29M (antibody, name in Kabat numbering, V domains shown, Dual-Ig) VH: QVQLVESGGGLVQPGRSLRLSCAASGFTFSNAWMHWVRQAPGKGLEWVAQIKDKGNAYAAYYAPSVKGRFTISRDDSKNSIYLQMNSLKTEDTAVYYCHYVHYASASTVLPAFGVDAWGQGTTVTVSS VL: DIVMTQSPLSLPVTPGEPASISCQASQELVHMNMNTYLHWYQQKPGQAPRLLIYKVSNRFPGVPDRFSGSGSGTDFTLKISRVEAEDVGVYYCAQGTSVPFTFGQGTKLEIK | 0.9
13 | H183/L072 VL R54D (antibody, name in Kabat numbering, V domains shown, Dual-Ig) VH: QVQLVESGGGLVQPGRSLRLSCAASGFTFSNAWMHWVRQAPGKGLEWVAQIKDKGNAYAAYYAPSVKGRFTISRDDSKNSIYLQMNSLKTEDTAVYYCHYVHYASASTVLPAFGVDAWGQGTTVTVSS VL: DIVMTQSPLSLPVTPGEPASISCQASQELVHMNRNTYLHWYQQKPGQAPRLLIYKVSNDFPGVPDRFSGSGSGTDFTLKISRVEAEDVGVYYCAQGTSVPFTFGQGTKLEIK | 0.3
14 | H183/L072 VL R54G (antibody, name in Kabat numbering, V domains shown, Dual-Ig) VH: QVQLVESGGGLVQPGRSLRLSCAASGFTFSNAWMHWVRQAPGKGLEWVAQIKDKGNAYAAYYAPSVKGRFTISRDDSKNSIYLQMNSLKTEDTAVYYCHYVHYASASTVLPAFGVDAWGQGTTVTVSS VL: DIVMTQSPLSLPVTPGEPASISCQASQELVHMNRNTYLHWYQQKPGQAPRLLIYKVSNGFPGVPDRFSGSGSGTDFTLKISRVEAEDVGVYYCAQGTSVPFTFGQGTKLEIK | 0.9
15 | H183/L072 VL R29Q (antibody, name in Kabat numbering, V domains shown, Dual-Ig) VH: QVQLVESGGGLVQPGRSLRLSCAASGFTFSNAWMHWVRQAPGKGLEWVAQIKDKGNAYAAYYAPSVKGRFTISRDDSKNSIYLQMNSLKTEDTAVYYCHYVHYASASTVLPAFGVDAWGQGTTVTVSS VL: DIVMTQSPLSLPVTPGEPASISCQASQELVHMNQNTYLHWYQQKPGQAPRLLIYKVSNRFPGVPDRFSGSGSGTDFTLKISRVEAEDVGVYYCAQGTSVPFTFGQGTKLEIK | 0.9
16 | H183/L072 VL R54I (antibody, name in Kabat numbering, V domains shown, Dual-Ig) VH: QVQLVESGGGLVQPGRSLRLSCAASGFTFSNAWMHWVRQAPGKGLEWVAQIKDKGNAYAAYYAPSVKGRFTISRDDSKNSIYLQMNSLKTEDTAVYYCHYVHYASASTVLPAFGVDAWGQGTTVTVSS VL: DIVMTQSPLSLPVTPGEPASISCQASQELVHMNRNTYLHWYQQKPGQAPRLLIYKVSNIFPGVPDRFSGSGSGTDFTLKISRVEAEDVGVYYCAQGTSVPFTFGQGTKLEIK | 1
17 | H183/L072 VL R54H (antibody, name in Kabat numbering, V domains shown, Dual-Ig) VH: QVQLVESGGGLVQPGRSLRLSCAASGFTFSNAWMHWVRQAPGKGLEWVAQIKDKGNAYAAYYAPSVKGRFTISRDDSKNSIYLQMNSLKTEDTAVYYCHYVHYASASTVLPAFGVDAWGQGTTVTVSS VL: DIVMTQSPLSLPVTPGEPASISCQASQELVHMNRNTYLHWYQQKPGQAPRLLIYKVSNHFPGVPDRFSGSGSGTDFTLKISRVEAEDVGVYYCAQGTSVPFTFGQGTKLEIK | 0.6
18 | H183/L072 VL R29K (antibody, name in Kabat numbering, V domains shown, Dual-Ig) VH: QVQLVESGGGLVQPGRSLRLSCAASGFTFSNAWMHWVRQAPGKGLEWVAQIKDKGNAYAAYYAPSVKGRFTISRDDSKNSIYLQMNSLKTEDTAVYYCHYVHYASASTVLPAFGVDAWGQGTTVTVSS VL: DIVMTQSPLSLPVTPGEPASISCQASQELVHMNKNTYLHWYQQKPGQAPRLLIYKVSNRFPGVPDRFSGSGSGTDFTLKISRVEAEDVGVYYCAQGTSVPFTFGQGTKLEIK | 1.1
19 | H183/L072 VL R54F (antibody, name in Kabat numbering, V domains shown, Dual-Ig) VH: QVQLVESGGGLVQPGRSLRLSCAASGFTFSNAWMHWVRQAPGKGLEWVAQIKDKGNAYAAYYAPSVKGRFTISRDDSKNSIYLQMNSLKTEDTAVYYCHYVHYASASTVLPAFGVDAWGQGTTVTVSS VL: DIVMTQSPLSLPVTPGEPASISCQASQELVHMNRNTYLHWYQQKPGQAPRLLIYKVSNFFPGVPDRFSGSGSGTDFTLKISRVEAEDVGVYYCAQGTSVPFTFGQGTKLEIK | 0.3
20 | H183/L072 VL R29I (antibody, name in Kabat numbering, V domains shown, Dual-Ig) VH: QVQLVESGGGLVQPGRSLRLSCAASGFTFSNAWMHWVRQAPGKGLEWVAQIKDKGNAYAAYYAPSVKGRFTISRDDSKNSIYLQMNSLKTEDTAVYYCHYVHYASASTVLPAFGVDAWGQGTTVTVSS VL: DIVMTQSPLSLPVTPGEPASISCQASQELVHMNINTYLHWYQQKPGQAPRLLIYKVSNRFPGVPDRFSGSGSGTDFTLKISRVEAEDVGVYYCAQGTSVPFTFGQGTKLEIK | 0.3
